In the supplement of paper PMC9170038:

Test system: MS2 coat protein
Experiment: apparent KD of MS2 coat protein; designed switch direction (-1 OFF switch, 1 ON switch): -1; higher = weaker reporter binding
Method in brief: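 Designed RNA switches sharing common flanks were transcribed on Illumina chips by stalled E. coli RNA polymerase. They were titrated with SNAP-549-labelled MS2 coat protein, from 0.7 or 1.5 nM doubling to 3 µM, in Tris-HCl pH 7.5 buffer with KCl, MgCl2, BSA, DTT, tRNA and Tween-20. Titrations ran without input, with 200 uM small-molecule ligand, or with an oligonucleotide input. The apparent KD of each design is the median over its clusters, after curve-fitting of normalised cluster fluorescence.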

[1] = Eterna round: R95, input ligand: FMN 200 uM
[2] = Eterna round: R95, input ligand: microRNA oligo, concentration not stated
[3] = Eterna round: R95, input ligand: none
[4] = input ligand: microRNA oligo, concentration not stated

| Sequence | apparent KD of MS2 coat protein [1] [nM] | apparent KD of MS2 coat protein [2] [nM] | apparent KD of MS2 coat protein [3] [nM] | apparent KD of MS2 coat protein (input ligand: FMN 200 uM) [nM] | apparent KD of MS2 coat protein [4] [nM] | apparent KD of MS2 coat protein (input ligand: none) [nM] |
| --- | --- | --- | --- | --- | --- | --- |
| AAAAGGUCAGGAUAUACAAGAAAAGAAAAGAAAAGAAAAGAGUAGAAGGGACAUGAGGAUCACCCAUGUAAAAG [Default title] (puzzle: Exclusion 4) | 30.6 | 45.8 | 35.1 |  |  |  |
| GCCAGAGCAGGAUAUUCAUUAUAUCACAUGAGGAUCACCCAUGUCCAGCGAAAGCUGGAGGGAGAAGGGCUCUGGC [Fiskers Ex 5 - 24] (puzzle: Exclusion 5) | 102 | 225 | 140 |  |  |  |
| GAGAUGCGGAUAGGAUAUGGAAGAAAAGAAGGAUUAGAAGGGUUGGUUAGAAUACAUGAGGAUCACCCAUGUGAAUCAUGAGAA [AK ExNG1-2.3] (Eterna round: R96, puzzle: Exclusion NG 1) |  |  |  | 99.2 | 81.1 | 128 |
| CUUUACAAGCUAAGAUCCUACAUGAGGAUCACCCAUGUGGUCCGGUGACGUGAGUCACCGGACUUAGCUCGUCUUGA [salish99_S_TOV1_R5_093] (Eterna round: R97, puzzle: Sensor, turn-off variant 1) |  |  |  | 32 |  | 39.1 |
| AUACCACGAGGAUAUCGUCUAUAAUACAUGAGGAUCACCCAUGUUAUAUCUGUAAUGUUUCGAGAAGGCGUGUGUU [JR_E5_Sub084] (Eterna round: R96, puzzle: Exclusion 5) |  |  |  | 17 | 15.4 | 21.3 |
| CGGAGCAGAGGGAGAUCCAACAUGAGGAUCACCCAUGUCUCACAAGCUUUUUGCUCGUCUUAUUGUACCUUGGUGCU [JL ViennaUCT Edcesobi mod 7] (puzzle: Sensor v3, turn-off variant 1) | 64.5 | 11.1 | 49.1 |  |  |  |
| UAGAAUCGAGGAUAUACAUGAGGAUCACCCAUGUGUGGCCACACGGUGUGGUCGUCAGGUAGAAGGCGAUUACA [Exclusion 3 - Mod of Jieux's Gilly Gone Silly 23 v.3] (puzzle: Exclusion 3) | 19.9 | 22.8 | 53.2 |  |  |  |
| AUCAUGUAAGGAUAUCUUACAUGGAUCGAAAGAUCAAGUUAAGAGAAGGUACAUGAGGAUCACCCAUGUAUAAC [Ex4-3: 34] (puzzle: Exclusion 4) | 21 | 22.3 | 20.8 |  |  |  |
| AACAGUACAGGAUAUACAUGAGGAUCACCCAUGUGAAGAAUAAGUGGAGUACCACAAAGUAGAAGGGUACUGGA [Ruby 88] (Eterna round: R96, puzzle: Exclusion 3) |  |  |  |  | 21.5 |  |
| AAAUCCGCUGAGGAUAUUAUGAGUGAGAGCUCAUGAGAAGGCGGUACAUGAGGAUCACCCAUGUCUAUGGGCAA [Ex-6 Malc#26] (puzzle: Exclusion 6) |  | 329 |  |  |  |  |
| UUAUUAUAUGUAGGAUAUGCAUAUUAUUAUUAUGCAGAAGGACAUGAGGAUCACCCAUGUAUAUUAUUAUUAUAUAUUAUGUAU [Title] (Eterna round: R96, puzzle: Exclusion NG 1) |  |  |  |  | 27.5 |  |
| UAAUUAAAUGUAGGAUAUCUGCACGUUUAGUGCAGAGAAGGACAUGAGGAUCACCCAUGUAGAUCAAAUUAAAUUAAUUUAAUU [ENG1/5-D2] (Eterna round: R96, puzzle: Exclusion NG 1) |  |  |  | 99.6 | 25.7 | 33.8 |
| UUUGUCUGUGUGAGGAUAUACUUGUUUGGGUUUUUGUAGAAGGCACAUGAGGAUCACCCAUGUAUUUUGUCGUG [JR_BME4_Sub018] (Eterna round: R96, puzzle: Brourd's mod of Exclusion 4) |  |  |  | 77.7 | 34.1 | 41.9 |
| UCUUAUUGCAAGGAUAUGCUUUUUAUUUCUUUUGCAGAAGGUGCAACAUGAGGAUCACCCAUGUUUCCGGGUAU [JR_E6_Sub034] (puzzle: Exclusion 6) |  | 23.8 |  |  |  |  |
